According to the supplement of paper PMC10567573:

B1: ZNF649 (parent)
chain: DECEKAYFYMSCLVKHKRIHSREK

Variants of: B1
Assay: protein stability index of a GFP-peptide fusion (GPS, HEK-293T) (PSI 1-6); higher = more stable
Conditions: c terminus: a fixed tail appended
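Further: lentivirally expressed fusions sorted by FACS into six bins by GFP to DsRed ratio, PSI derived from sequencing read proportions per bin multiplied by bin number.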

Point of comparison: DECEKAYFYMSCLVKHKTIHSREK, protein stability index 2.61. Against it:
- DECEKAYFYMSCLVKHKRIHSRHK — lower, 2.36
- DECEKAYFYMSCLVKHKRIHSRGK — higher, 2.62
- DECEKAYFYMSCLVKHKRIHSRKK — higher, 2.7
- DECEKAYFYMSCLVKHKRIHSRDK — higher, 2.81
- DECEKAYFYMSCLVKHKRIHSRQK — higher, 2.99
- DECEKAYFYMSCLVKHKRIHSRFK — lower, 2.15
- DECEKAYFYMSCLVKHKRIHSRVK — lower, 2.2
- DECEKAYFYMSCLVKHKRIHSRSK — lower, 2.23
- DECEKAYFYMSCLVKHKRIHWREK — lower, 1.61
- DECEKAYFYMSCLVKHKRIHMREK — lower, 2.13
- DECEKAYFYMSCLVKHKRIHAREK — lower, 2.48
- DECEKAYFYMSCLVKHKRIHRREK — lower, 2.58
- DECEKAYFYMSCLVKHKRIHYREK — lower, 1.87
- DECEKAYFYMSCLVKHKRIHHREK — lower, 2.53
- DECEKAYFYMSCLVKHKRIHVREK — higher, 2.65
- DECEKAYFYMSCLVKHKVIHSREK — lower, 2.36
- DECEKAYFYMSCLVKHKGIHSREK — higher, 2.72
- DECEKAYFYMSCLVKHKSIHSREK — lower, 2.56
- DECEKAYFYMSCLVKHKQIHSREK — lower, 2.56
- DECEKAYFYMSCLVKHKPIHSREK — lower, 2.48
- DECEKAYFYMSCLVKHKWIHSREK — lower, 2.34
- DECEKAYFYMSCLVKHKIIHSREK — lower, 2.08
- DECEKAYLYMSCLVKHKRIHSREK — lower, 2.48
- DECEKAYMYMSCLVKHKRIHSREK — higher, 3.36
- DECEKAYTYMSCLVKHKRIHSREK — higher, 3.52
- DECEKAYDYMSCLVKHKRIHSREK — higher, 3.88
- DECEKAYKYMSCLVKHKRIHSREK — higher, 3.6
- DECEKAYHYMSCLVKHKRIHSREK — higher, 3.79
- DECEKAYNYMSCLVKHKRIHSREK — higher, 3.7
- DQCEKAYFYMSCLVKHKRIHSREK — lower, 2.49
- DNCEKAYFYMSCLVKHKRIHSREK — higher, 2.62
- DKCEKAYFYMSCLVKHKRIHSREK — lower, 2.17
- DRCEKAYFYMSCLVKHKRIHSREK — lower, 2.08
- DMCEKAYFYMSCLVKHKRIHSREK — lower, 1.41
- DTCEKAYFYMSCLVKHKRIHSREK — higher, 3.17
- DECEKAYFYMSGLVKHKRIHSREK — higher, 3.33
- DECEKAYFYMSELVKHKRIHSREK — higher, 3.54
- DECEKAYFYMSLLVKHKRIHSREK — lower, 2.23
- DECEKAYFYMSPLVKHKRIHSREK — higher, 3.05
- DECEKAYFYMSWLVKHKRIHSREK — lower, 2.33
- DECEKAYFYMSALVKHKRIHSREK — higher, 2.83
- DECEEAYFYMSCLVKHKRIHSREK — higher, 2.95
- DECELAYFYMSCLVKHKRIHSREK — the same, 2.61
- DECEAAYFYMSCLVKHKRIHSREK — higher, 2.71
- DECEIAYFYMSCLVKHKRIHSREK — lower, 1.79
- DECEPAYFYMSCLVKHKRIHSREK — higher, 3.51
- DECEDAYFYMSCLVKHKRIHSREK — higher, 3.36
- DECEMAYFYMSCLVKHKRIHSREK — lower, 2.34
- DECEQAYFYMSCLVKHKRIHSREK — higher, 3.08
- DECEWAYFYMSCLVKHKRIHSREK — higher, 2.82
- DECEKAYFYMSCLVKHKRIHSREH — higher, 2.72
- DECEKAYFYMSCLVKHKRIHSRET — lower, 1.98
- DECEKAYFYMSCLVKHKRIHSREG — lower, 2.31
- DECEKAYFYMSCLVKHKRIHSREC — lower, 1.55
- DECEKAYFYMSCLVKHKRIHSREN — lower, 2.54
- DECEKAYFYMSCLVKHKRIHSREE — higher, 3.45
- DECEKAYFYMSCLVKHKRIHSREM — lower, 1.97
- DECEKAYFYMSCLVKHKRIHSRED — higher, 3.02
- DECEKAYFYMSCPVKHKRIHSREK — higher, 3.1
- DECEKAYFYMSCTVKHKRIHSREK — higher, 2.81
- DECEKAYFYMSCRVKHKRIHSREK — lower, 2.15
- DECEKAYFYMSCEVKHKRIHSREK — higher, 3.61
- DECEKAYFYMSCNVKHKRIHSREK — higher, 3.65
- DECEKAYFYMSCLLKHKRIHSREK — higher, 2.63
- DECEKAYFYMSCLCKHKRIHSREK — lower, 2.33
- DECEKAYFYMSCLHKHKRIHSREK — higher, 3.86
- DECEKAYFYMSCLSKHKRIHSREK — higher, 3.65
- DECEKAYFYMSCLMKHKRIHSREK — lower, 2.18
- DECEKAYFYMSCLTKHKRIHSREK — higher, 3.09
- DECEKAYFYMSCLYKHKRIHSREK — lower, 2.5
- DECEKAYFYMSCLEKHKRIHSREK — higher, 3.38
- DECEKAYFYMSCLIKHKRIHSREK — lower, 2.11
- DECEKMYFYMSCLVKHKRIHSREK — lower, 1.9
- DECEKPYFYMSCLVKHKRIHSREK — higher, 2.79
- DECEKWYFYMSCLVKHKRIHSREK — lower, 2.03
- DECEKTYFYMSCLVKHKRIHSREK — lower, 2.55
- DECEKVYFYMSCLVKHKRIHSREK — lower, 1.96
- DECEKHYFYMSCLVKHKRIHSREK — lower, 2.58
- DECEKKYFYMSCLVKHKRIHSREK — lower, 2.56
- DECEKAYFYMSCLVKHKRIYSREK — lower, 2.59
- DECEKAYFYMSCLVKHKRIESREK — higher, 3.6
- DECEKAYFYMSCLVKHKRIKSREK — lower, 2.6
- DECEKAYFYMSCLVKHKRIFSREK — higher, 2.88
- DECEKAYFYMSCLVKHKRILSREK — lower, 2.48
- DECEKAYFYMSCLVKHKRIDSREK — higher, 3.33
- DECEKAYFYMSCLVKHKRIVSREK — lower, 2.24
- DECEKAYFYMKCLVKHKRIHSREK — lower, 2
- DECEKAYFYMCCLVKHKRIHSREK — lower, 2.13
- DECEKAYFYMMCLVKHKRIHSREK — lower, 2.37
- DECEKAYFYMYCLVKHKRIHSREK — higher, 2.68
- DECEKAYFYMDCLVKHKRIHSREK — higher, 3.55
- DECEKAYFYMNCLVKHKRIHSREK — higher, 2.97
- DECEKAYFYMLCLVKHKRIHSREK — lower, 1.74
